Laboratory results from patent US20160362464A1.

Key:
FZD7-CFP [1] = test: FRET at the plasma membrane of HEK293 cells within 5 min after Wnt5a stimulation (FIG. 4H, I)
FZD7-CFP [2] = test: FRET at the plasma membrane of starved HEK293 cells; printed: No such interaction was observed in starved cells (FIG. 4H, I)
[3] = biological target: CFP-Gβ1 with untagged Gγ2; test: FRET at the plasma membrane of control HeLa cells, before Wnt5a stimulation (FIG. 2J, L)
[4] = biological target: CFP-Gβ1 with untagged Gγ2; test: FRET at the plasma membrane of control HeLa cells, within 5 min after Wnt5a stimulation (FIG. 2J, L)

CFP-Gβ1 with untagged Gγ2, sequence (P62873 2-340, chain 1 of 2): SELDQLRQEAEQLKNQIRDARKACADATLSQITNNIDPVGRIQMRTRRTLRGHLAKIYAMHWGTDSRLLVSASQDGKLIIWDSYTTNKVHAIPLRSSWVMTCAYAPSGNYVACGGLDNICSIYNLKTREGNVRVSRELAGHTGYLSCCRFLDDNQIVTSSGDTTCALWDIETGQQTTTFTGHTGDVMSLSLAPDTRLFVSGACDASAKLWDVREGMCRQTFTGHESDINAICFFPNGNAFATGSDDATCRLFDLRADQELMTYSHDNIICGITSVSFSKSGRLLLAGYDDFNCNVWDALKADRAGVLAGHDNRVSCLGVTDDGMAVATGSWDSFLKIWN
CFP-Gβ1 with untagged Gγ2, sequence (P59768 2-68, chain 2 of 2, further chain): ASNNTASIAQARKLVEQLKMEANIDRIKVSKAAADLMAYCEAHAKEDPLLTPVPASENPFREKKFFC
Gαi1-YFP (internally tagged), sequence (P10824 2-354): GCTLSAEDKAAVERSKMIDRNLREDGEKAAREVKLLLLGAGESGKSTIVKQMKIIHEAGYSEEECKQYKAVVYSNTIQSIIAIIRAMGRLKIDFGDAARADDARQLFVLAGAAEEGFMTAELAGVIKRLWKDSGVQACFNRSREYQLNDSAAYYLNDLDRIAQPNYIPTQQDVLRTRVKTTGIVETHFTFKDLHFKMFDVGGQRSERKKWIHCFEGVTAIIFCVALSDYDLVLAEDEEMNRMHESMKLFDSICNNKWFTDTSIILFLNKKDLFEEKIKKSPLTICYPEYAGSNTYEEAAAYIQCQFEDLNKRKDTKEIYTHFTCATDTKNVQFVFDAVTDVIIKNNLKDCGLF

| Substance | FRET efficiency (FZD7-CFP [1]) | FRET efficiency (FZD7-CFP [2]) | FRET efficiency [3] | FRET efficiency [4] |
| --- | --- | --- | --- | --- |
| Gαi3-YFP (internally tagged) | 0.25 | 0.04 | – | – |
| Gαi1-YFP (internally tagged) | – | – | 0.36 | 0.17 |
